Assay results taken from patent US20220306759A1.

Columns and labels:
[1] = biological target: human CD71 (transferrin receptor protein 1, TfR1) on human cell lines (human) (UniProt P02786); test: FACS on H292 cells; isotype ADC control
[2] = biological target: human CD71 (transferrin receptor protein 1, TfR1) on human cell lines (human) (UniProt P02786); test: FACS on H292 cells; isotype ADC control, curve fit with Bmax of only 10.64 MFI

Sequence of human CD71 (transferrin receptor protein 1, TfR1) on human cell lines (human) (P02786 whole entry): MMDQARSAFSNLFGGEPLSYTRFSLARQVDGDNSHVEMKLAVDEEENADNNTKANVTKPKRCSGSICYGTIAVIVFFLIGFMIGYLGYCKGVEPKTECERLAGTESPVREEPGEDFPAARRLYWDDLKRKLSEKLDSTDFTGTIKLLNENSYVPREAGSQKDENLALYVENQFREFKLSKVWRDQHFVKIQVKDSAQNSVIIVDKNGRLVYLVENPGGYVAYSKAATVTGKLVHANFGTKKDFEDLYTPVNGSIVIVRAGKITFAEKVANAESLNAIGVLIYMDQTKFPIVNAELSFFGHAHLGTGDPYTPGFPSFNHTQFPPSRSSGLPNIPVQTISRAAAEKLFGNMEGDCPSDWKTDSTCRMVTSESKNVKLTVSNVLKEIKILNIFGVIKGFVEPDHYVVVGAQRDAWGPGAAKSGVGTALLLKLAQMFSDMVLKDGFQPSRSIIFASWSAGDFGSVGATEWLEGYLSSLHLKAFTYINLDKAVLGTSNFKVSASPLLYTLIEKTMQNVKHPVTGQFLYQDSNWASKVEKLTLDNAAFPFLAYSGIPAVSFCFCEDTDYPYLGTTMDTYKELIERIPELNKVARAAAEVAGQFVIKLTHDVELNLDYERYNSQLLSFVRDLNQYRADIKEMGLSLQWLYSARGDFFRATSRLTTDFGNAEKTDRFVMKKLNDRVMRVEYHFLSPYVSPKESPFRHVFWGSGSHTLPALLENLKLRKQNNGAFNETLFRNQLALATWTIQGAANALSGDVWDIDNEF

Q: With “isotype ADC control (palivizumab-vc-MMAE) (antibody)” as the substance, how does the Bmax (MFI) [1] read?
A: 10.6 MFI

Q: And the Kd [2]?
A: 57 nM
